Reference: the RNAGym collection of RNA variant scans (doi:10.1073/pnas.2313332121)

B1: TPR t1 (parent)
chain: GACCAAUCUGCCCUCAGAGCUCGAGAACAUCUUCGGAUGCAGAGGAGGCAGGCUUCGGUGGCGCGAUAGCGCCAACGUCCUCAACCUCCAAUGCAUCCCACCACAUGAUGAUGCCUGAAGAGCCUUGGUUUUUUG

Variants of: B1
Assay: polymerase ribozyme fitness, log enrichment relative to wild type (log ratio); higher = more active; in vitro selection for triplet polymerase activity
Procedure, shortened: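 A heterodimeric triplet polymerase ribozyme had each of its subunits mutagenized by PCR into a library, which was transcribed. One round of in vitro selection, done in triplicate, annealed each library with a biotinylated primer, its partner subunit and triplets, then incubated it frozen at −7 °C before gel excision of extended constructs, streptavidin-bead capture and RT-PCR. Fitness is the logarithm of genotype enrichment relative to wild-type enrichment, based on Illumina sequencing of inputs and outputs and inverse-variance-weighted replicate averages. A base-2 logarithm is used, and genotypes were kept only with ≥10 input reads and ≥1 read per output.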

Variant	polymerase ribozyme fitness (log ratio)
C89A C104A	-4.02
A95C G113U G120C U125A	-3.79
C94A C123G	-0.728
C94A C104A C123U	-1.42
C94A U132A	-0.269
G93U A100U	-1.72
C89U A90C	-0.815
C89G A105G	-3.85
C89U C101U	-1.33
G93C G113C	-3.08
U92G G120A A121C	-2.53
U92G A118C	-4
A91U C115U U130A	-2.33
C89U A90G U112A C123G	1.96
U92C U112G G113U U130C	-5.75
A90C U106C U116G A119G U125G	-1.75
C94U G128C	-4.18
A91U U106G	-4.85
U96A C97A	-2.95
C89A C101A	-2.25
U92G G120C	-1.74
G93U G120U	-1.4
A91U G113U	-3.5
A91C U96G	-1.78

Variant	polymerase ribozyme fitness (log ratio)
G93C G135A	-1.71
U96A	-0.895
C88G U116G	-3.52
A95G G117A U133A	-1.23
A90G A121C	1.62
C94U U112A	1.59
A95U U106C	-1.56
C89A G135U	-2.26
C89U C104U	0.00386
G93A C101U A118G	-0.63
U96A G110A	-2.45
C94G A118U	-0.748
C89G C123U	-0.521
A95G U126C	-0.892
A90U A118U	-0.274
C94A A105C C114A A118U	-1.05
G93A C114A A119U G122C	-3.4
C89A C123U U129A	-1.73
G93A G113U	-3.19
C89G C115G G128A	-6.15
A95C C102A U133A G135C	-2.89
C94G C114U	-3.17
A95C C123G U132A	-0.459
U92C C102U	-4.04

Variant	polymerase ribozyme fitness (log ratio)
G93C A95C	-0.938
C88G U129A	-3.06
C88U C102U	-1.5
C94U G117C	-3.83
A90G C102A G117A	-5.32
A90U G93A G110A U131G	-5.42
G93U U112G G120C C123U	-2.5
A95C U125A U126G	-1.74
C89U A119U	-2.2
A95U U116G	-2
U92A C98U	-4.66
A95G G135U	-0.746
A91C U96A A103U	-7.59
G93A U129A	-1.36
C88G U125G	-1.44
U92A C114A	-3.48
C89U U96A	-1.3
C89U U96C	-0.473
A90C C98U	-2.83
C88U U116A	-3.45
C88U U116C	0.189
C88G G113C	-2.74
C88G G113A	-1.99
U92C G128C U130A	-3.52

Variant	polymerase ribozyme fitness (log ratio)
A90G C102A C124A	0.51
U92C G120U G127A	-0.833
C94A C97U G120U	-1.04
G93U U109C	-5.62
A90G C94U C97A C124A	-0.528
C88U G107A	-6.88
C89G C97G	-6.08
A90G A103U A119G	-3.56
A95U U129C	-0.935
C88U U106A U130A	-0.0999
A91G C94U U109A U112A	-6.42
A90C U125A	-1.2
C94A A121U	1.37
C94G C124G	1.09
C89U G127C	-1.79
U92G A121C C123G	-0.349
G93C G117U	-2.87
A91C A95U C101A	-4.41
G93C C104U A108G	-2.77
U92A C94U	-3.3
C94A G127U	-1.5
C94G U131A	-1.9
C89U G110U	-2.22
C89U G110C	-3.36

Variant	polymerase ribozyme fitness (log ratio)
C89A U96A C115A	-2.16
C94A C101G C123G	-1.92
G93U U130A U131C	-1.29
G93A U131C	-0.974
A90U U92C U96C	-2.06
G93A G122A	-1.4
G93C G127C	-1.82
A91G G113A	-1.95
C88G G127C	-2.07
C89G G120A	-1.58
A90C A121C	0.757
C94U C123A	0.36
A90G C102A	-1.25
C89G C98U	-1.55
C94G G120A	0.357
C89U G117A	-2.43
A95G A119G	1.26
G93A G128U	-1.66
G93A G120U	-0.0719
G93A G120A	0.446
A90C A95G	-0.983
C88G G117A G120C	-4.17
C89A U112A A121U U131C	0.436
A90C G128C	-3.68

Variant	polymerase ribozyme fitness (log ratio)
A90U C101A	-3.3
C88U C97A	-4.84
C89G	-1.19
C89A	-1.27
C89U	-0.195
G93A U132C	-0.827
U92G U125A	-2.96
C89U U112A	-0.432
A91C C104A	-3.58
G93C A111U	-5.12
C89A U129C	-2.03
G93U A111G G122A	-1.2
U96A G120U	-0.867
C88G U112A	1.18
A90G C97U	0.255
C89G C97A A100U C114A	-7.31
U96A C102A	-3.43
C89A C114A	-2.6
A95U C102U U125G	-4.42
G93A U112C	0.676
G93C G128C	-2.25
C88G U92A	-4.09
A91C U112A	-0.47
C89A G122A U125G	-4.57

Variant	polymerase ribozyme fitness (log ratio)
C89U U129G	-1.72
C94A U112G	-1.48
A91C C123A	-1.1
A95U C114G	-2.97
A90C U109A A118U	-5.95
C89U G107A	-5.32
A91G G120U	0.174
A95C U131A	-0.642
G93U G110U	-2.46
C88U C101U U106G C123A	-1.23
U92G G93C G117C A121U	-5.65
C88G U96G	-0.738
U92A U106A C114A C123A	-5.83
U92A C102G G113C	-6.86
C89A G127C U133G	-4.42
G93A C97U G127C	-2.77
A91G G113C G120A	-3.31
C94U C98U G120U G127U	-0.759
A91C G127A	-2.15
C88U U129A	-0.777
C88U A90G C99U	-2.84
A95U U116G A118G	-2.78
C89U U133A	-0.271
